# Source: the DeepSol protein solubility set
# Experiment: soluble on expression in E. coli; label from the status in PepcDB or PDB records
row,Sequence,soluble on expression in E. coli
1,MYIPNAFRESDTHNLQEHMDKTRLAILVTQGDDGLHATHLPLLLRSDEGPYGTLYGHMAKANPQWQQLNADAEAMVIFPGEDAYVSPSFYPSKAEHGKVVPTWNYLAVHAYGQAECFTDPDRLHQLLNDLTDRHESSRAQPWSINDAPADYIAKMLGAIVGFSIPVQRLQGKRKLSQNRSAEDMAGVRDGLGASHLANDQQIARLMSGWRPS,not soluble
2,MGSDKIHHHHHHMQNWLKQITTGAMIGTTVLVTSACTMRLSESTFIASDEVPVAFTAEFTQQLQQAMPNHLITPLSLEASDHVKLNGFYIDNPNSLTTLVFYQGNGMKIEPHGLSVLTTLSTLNTDILVMDRRGLGASEGQPSINNIIADAQQQLDYLHQQYQPEKVILHGYSLGSFIAADLAKNNKIDALILHGSATNADDWVDEKTPWYMAPFMTLEMPEDFRKTDNKQVVAQYYQGPLLVIAAEEDEEVPPELSEKLFVASQSANKQLIMVPNVGHQGMLDDANTMSQYQTFITEL,not soluble
3,MGPIVSPALHAVQASRFEDVRQARSATGTRTDEGLRRSAGGRYAGASSRGTYQSGAGRVTNPLRRSKVSESLSIHHDVGGHQFETTVDGHRAYLAYMDLGKQTLDIYRTFVPDSLRGRGIAAALTEHALQYADRMGYSVIPSCSYVERYIERRQRQADPAALEHHHHHH,soluble
4,MPPKIAEVIQHDVCAACGACEAVCPIGAVTVKKAAEIRDPNDLSLYEKGAAFQVCEGCLTCSRICPVVDGFIENELLNVRKFFGAKSKDNAGSQDGGVTSGILKALFNKGEIDCAVGITRNENWEPEVVLLTSAEDVERTRGTKYTSDPVVAALREAFEKYDRIAVVGVPCQAHAARLIRENVNEKIVLIIGLLCMESFHHDVMLDKIIPEIMKVNVRDIVKMEFTKGKFWVYTKDGEVHSVPIKDIAKYARNPCHHCCDYTSVFADISVGSVGAPDGWNSVFIRTEIGEKYFDMVRDEMEIMEDPKPGLELVGKLIEMKRKGNAEHFQEVCKEFSFETGIRSETVLEHHHHHH,soluble
5,MQLNSSSFHPHHFTCDTTRYSEEQVACICEALSNDARKLSQFVWTVLERDEMRNNQYILKAQAFLAFHSNNFKELYRIIESHHFASEHHLPLQEWWLNAHYHEAEKIRGRQLGAVGKYRIRRKYPLPRTIWDGEETSYCFRDKSRVLLRDWYCRNSYPSPREKRELAEKTHLTVTQVSNWFKNRRQRDRAGVPEPKDCLKDISEEEDLKLIRKTASKLSNSFHNPSDLSSYSAAAAAATFPGFYMNYNDMMIGAGTSYQSL,not soluble
6,AARLPVAPRHLPTLEKFRAEQPTVQGTSTPTISANAALLIGSLLQSEKLPFEVMAARLSPERYALQQFHGSDLQQMLGRFAEPGHLPGKAETEQLIKGFARSLADQLEHFQLMHDATAEAFGPGGLRDRNTLAVSQAALGEYAGRASKSIEAGLNHSLAVLDERIAALDSQLEGATEDSRPVLLMDRQALETARAMLSDLHVDFCKSPEAKRLSAVAAHTQMDALIDKLNVDRSSVGGWKGIGPIVAAAVPQFMVSMLHLGYIRTATSDAMKDAVPEKSADASMKRALAVGLTAGVAHEGVTNLLKPMVQAGFQKAGLNERLNMVPLKGIDTDSVIPDPFELKNDNGALVRKTPEEAAEDKAFVASERAVLNQKKVQVSSTHPLGEMIPYGAFGGGQAVRQMLNDFNLLNGQTLSARAVTSGIAGAISATTQTIAQLNSTYVDPRGRKIPVFTPDRANADLGKDLAKGLDLREPAVRTAFYSKAVSGVQSAALNGALPSVAVQPQGASGTLSAGNIMRNMALAATGSVSYLSTLYANQSVTAEAKALKEAGMGGATPMVARTETALSNIRHPDRASLPHTFQPDTLGGVPRAVENAYHMARGALQLPTQVVVDTVRVVEDGVASGVSSLRDAHKPAET,not soluble
7,MLSALRTAGAVGTRRLASTQAIASNSEAPKGIATTGTPFLNPSSKAEYALARLDDVLNLAQRGSIWPLTFGLACCAVEMMHFAAPRYDMDRYGVVFRASPRQADLIFVAGTVTNKMAPALRRIYDQMPEAKWVISMGSCANGGGYYHYAYSVLRGCDRVIPVDIYVPGCPPTAEALLYGVLQLQKKIKRKREAQLWYRR,not soluble
8,EAAPAPAGKGKILAVTACPTGIAHTFMAADALKEKAKELGVEIKVETNGSSGIKHKLTAQEIEDAPAIIVAADKQVEMERFKGKRVLQVPVTAGIRRPQELIEKAMNQDAPIYQGSGGGSA,not soluble
9,MDGYEEYTVLKEWEKTHKNEEIYSIRFGGNYMIDMKDGIKLSTDVYLPDFVDSAKKAPTILMRTPYGKENDKEIYYKYVQRGYAVVIQDVRGRNESEGKWEPMIHEREDGDSTINWIVSQEWSSGIVGMLGASYLGYVQWAAASSGNKHLKALVSIVTSGSPFIDIPRKGGAFVSGMLAWAFMVSRNKVDRSKMVRDDWDDVLNIRPIENIPVEALGYRIEFLEEWLKRVEKDEYWDLMDWHLQKDKINVPALVVSGWYDDNSMGTTEALDVIKDYEKGKRKAILGPWMHNSNTLRDINGISLGNSSLRYDLDYNYLLWFDKYLKGIENNIDTTAPVEYYSVGSNKWKTEE,not soluble
10,MKNLEKCILCGSHNIVPHWKNVRSYNVSKCLDCSFLFLHEIIDDHELENYYSQSYFMASYAKTENNLIDAANNPKITAEAKEYANLIKLHHPEAHNVGEIGCSWGYLLYNLQNFGYSAKGFELSKTTAEMGSKQLGINITSGFFETQYNQFDVLILRHVLEHVPDPQDLLEKIYDSIKKDGLFILEGPNLDSISSRLFGKNVSWVSPPDHISFPNFISLIMACEKLGFTCIHKSSRRGRGISIFHQALLNSVGLMFGGKEKAKVNLGGINEKPNNQQLSSLKSAALKIVDFLDFLSSPMQPFLKQALLEEEMLIIFKKLEHHHHHH,not soluble
11,MNNETSGKETASAPLCSPKLPVEKVQRIAKNDPEYMDTSDDAFVATAFATEFFVQVLTHESLHRQQQQQQQQVPPLPDELTLSYDDISAAIVHSSDGHLQFLNDVIPTTKNLRLLVEENRVRYTTSVMPPNEVYSAYVVNDTAPKPNIVEIDLDNDEDDDEDVTDQE,not soluble
12,VKNPSLICAPVMADSIDKMVIETSKAHELGADLVEIRLDWLKDFNPLEDLKTIIKKSPLPTLFTYRPKWEGGQYEGDENERRDVLRLAMELGADYIDVELQVASEFIKSIDGKKPGKFKVIVSSHNYQNTPSVEDLDGLVARIQQTGADIVKIATTAVDIADVARMFHITSKAQVPTIGLVMGERGLMSRILCSKFGGYLTFGTLDSSKVSAPGQPTIKDLLDLYNFRRIGPDTKVYGIIGKPVSHSKSPIVHNQAFKSVDFNGVYVHLLVDNLVSFLQAYSSSDFAGFSCTIPHKEAALQCCDEVDPLAKSIGAVNTILRRKSDGKLLGYNTDCIGSISAIEDGLRSSGDPSSVPSSSSPLASKTVVVIGAGGAGKALAYGAKEKGAKVVIANRTYERALELAEAIGGKALSLTDLDNYHPEDGMVLANTTSMGMQPNVEETPISKDALKHYALVFDAVYTPRITRLLREAEESGAITVSGSEMFVRQAYEQFEIFTGLPAPKELYWQIMSKYGSRENLYFQ,soluble
13,MGHVDREDLLNVIRHELRLEDDDGPGLCSRLLLNPDRKCRAGGLPLDFRLKNGDLMDDGDAGFDDIYEIPLYEEPIHTRTLINDSLALRTAEKIKEEGRRDNFYTGPLDELFVKQEVNWPPKTPISTEKSAIERYLEENSANLNNPLGEYSKFAATTTDPSRQIEIIIPMSCDEEIGFKTLKIEVLTTARIREVIGYCLLQYYLTFDSYLPGEVDDYQFYLAEEDGEIEHELPPLDSSKLVGQVGFTCLGLVSRIKKNGNSRQKRAVAVWFVDKDQYVIEVDNMEKPLRWLRDEAFRLREETVKEREPLFQGLLDIKEYYMEAVDNFDVKLDLEASISSARSLEFVMIRKNSSRAGFHPRGGRYGRQMSAMLTLKMPNSPIAAGPMTPLPTVMEESPAVAGTSNGFGFPKAESCGAIASTPGVTWNDDGGQLSSFIVQRIHKFKPKWKANLSTVV,not soluble
14,MSKSENLYSAARELIPGGVNSPVRAFTGVGGTPLFIEKADGAYLYDVDGKAYIDYVGSWGPMVLGHNHPAIRNAVIEAAERGLSFGAPTEMEVKMAQLVTELVPTMDMVRMVNSGTEATMSAIRLARGFTGRDKIIKFEGCYHGHADCLLVKAGSGALTLGQPNSPGVPADFAKYTLTCTYNDLASVRAAFEQYPQEIACIIVEPVAGNMNCVPPLPEFLPGLRALCDEFGALLIIDEVMTGFRVALAGAQDYYGVVPDLTCLGKIIGGGMPVGAFGGRRDVMDALAPTGPVYQAGTLSGNPIAMAAGFACLNEVAQPGVHETLDELTTRLAEGLLEAAEEAGIPLVVNHVGGMFGIFFTDAESVTCYQDVMACDVERFKRFFHMMLDEGVYLAPSAFEAGFMSVAHSMEDINNTIDAARRVFAKL,soluble
15,MSLSFLKHVQDCNTHDLSNFVRFVIEGRRVGWVRKALAQRLKAHGRVFDVTRDAVLLSASLRTPQSRTRAVADVVDRLADEGVVPAPRGELYRVNQSWGEPTLMLLDRAVVPTFGVRAYGVHLNGYVGAGADLHLWIGRRSPDKSVAPGKLDNMVAGGQPADLSLRQNLIKECAEEADLPEALARQAIPVGAITYCMESPAGIKPDTLFLYDLALPEDFRPHNTDGEMADFMLWPAAKVVEAVRTTEAFKFNVNLTVIDFAIRHGLIDPDNEPDYQEILAGLRGRPRERAASEGHHHHHH,soluble
16,MGSDKIHHHHHHMKSYRKELWFHTKRRREFINITPLLEECVRESGIKEGLLLCNAMHITASVFINDDEPGLHHDFEVWLEKLAPEKPYSQYKHNDTGEDNADAHLKRTIMGREVVIAITDRKMDLGPWEQVFYGEFDGMRPKRVLVKIIGE,soluble
17,MRHRGGRGFRGWWLASTILLLVAEKPSHGYELAERLAEFGIEIPGIGHMGNIYRVLADLEESGFLSTEWDTTVSPPRKIYRITPQGKLYLREILRSLEDMKRRIETLEERIKRVLQEE,soluble
18,MQKQNIVILGSTGSIGKSTLSVIENNPQKYHAFALVGGKNVEAMFEQCIKFRPHFAALDDVNAAKILREKLIAHHIPTEVLAGRRAICELAAHPDADQIMASIVGAAGLLPTLSAVKAGKRVLLANKESLVTCGQLFIDAVKNYGSKLLPVDSEHNAIFQSLPPEAQEKIGFCPLSELGVSKIILTGSGGPFRYTPLEQFTNITPEQAVAHPNWSMGKKISVDSATMMNKGLEYIEARWLFNASAEEMEVIIHPQSIIHSMVRYVDGSVITQMGNPDMRTPIAETMAYPHRTFAGVEPLDFFKIKELTFIEPDFNRYPNLKLAIDAFAAGQYATTAMNAANEIAVQAFLDRQIGFMDIAKINSKTIERISPYTIQNIDDVLEIDAQAREIAKTLLRE,not soluble
19,MNIIIATTKSWNIKNAQKFKKENESKYNTTIITNKDELTFEKVKLINPEYILFPHWSWIIPKEIFENFTCVVFHMTDLPFGRGGSPLQNLIERGIKKTKISAIKVDGGIDTGDIFFKRDLDLYGTAEEIFMRASKIIFNDMIPELLTKRPVPQKQEGEATVFQRRKPEQSEISPDFDLEKIYDYIRMLDGEGYPRAFIKYGKYRLEFSRASMKNGKIIADVEIIEGDENE,soluble
20,MGSDKIHHHHHHMLEPQDQKKLDELFSSMQEANGCFLGYPFAKDFDYEPLWRFMSLTGNNLGDPFEPGTYRVNSHAFECDVVDFFARLFRACSCEVWGYVTNGGTEGNIYGLYLARELYPNAVAYFSQDTHYSVSKGVRLLRLEHSVVRSQSNGEINYDDLAQKATRYRTRPAVVVANIGTTMKEGKDDTLKIRAVLHDVGISAIYVHSDAALCGPYAPLLNPKPAFDFADGADSITLSGHKFLGAPMPCGVVLSHKLHVQRVMRNIDYIGSSDTTLSGSRNAFTPIILWYAIRSLGIEGIKQTFQQCERLAAYTADELNVRGVSAWRNPNALTVVLPPVEDSIKTKWQIATQDVSHLVVTPGTTKQQADALIETISNRNR,not soluble
21,MKIRVVSSKEEIDTLKLNEEIVHLAFRPSNKDIFKLILKCPEVKAIHIPSSYKRTISSSAQMYLSMQNIALLEGDVWGHRKDINEYSEVSEHVFDRIKELKEEGLSDEDTIEKLVRETRLSPDFVTFIISN,not soluble
